The term stoichiometry N denotes the number of molecules, sites or subunits per partner or assembly.

The target in this assay is rhRKIP C133A mutant, histidine-tagged (human) (UniProt P30086). Briefly: non-reducing SDS-PAGE; purified rhRKIP in sample loading buffer without β-mercaptoethanol or boiling; Coomassie Brilliant Blue staining or anti-His immunoblot. In general terms: A western blot detects proteins with antibodies after separation by electrophoresis.

Regarding “rhRKIP C133A mutant, histidine-tagged (from UniProt P30086 1-187) (natural protein)”, the stoichiometry N came to 2.

Source of the values: publication PMC11767649.
